In the supplement of paper PMC9112550, “Optimization of the antimicrobial peptide Bac7 by deep mutational scanning” (BMC Biology, 2022):

Test system: Escherichia coli TOP10
Experiment: shrunken log2 fold change of peptide-encoding DNA abundance (4.5 h post-induction vs induction); higher = less antimicrobial activity (less host growth inhibition)
Conditions: time post-induction: 4.5 h; library: site-saturation at positions 5, 18, 19, 20
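Also: peptides expressed intracellularly from a pBAD plasmid library in pooled LB shake-flask culture, induced with 0.3% L-arabinose, DNA abundance read by NGS, three biological replicates, DESeq2 with apeglm shrinkage.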

Sequence | shrunken log2 fold change
RRIRLRPPRLPRPRPRPWFKPRP | -0.86
RRIRCRPPRLPRPRPRPFPVPRP | 0.11
RRIRLRPPRLPRPRPRPYAQPRP | -0.599
RRIRYRPPRLPRPRPRPNDHPRP | -1.23
RRIRPRPPRLPRPRPRPGWTPRP | 0.235
RRIRKRPPRLPRPRPRPWAPPRP | 0.0466
RRIRFRPPRLPRPRPRPKADPRP | -0.0989
RRIRSRPPRLPRPRPRPLLSPRP | -0.051
RRIRERPPRLPRPRPRPMHYPRP | -0.0285
RRIRSRPPRLPRPRPRPEFNPRP | 0.24
RRIRCRPPRLPRPRPRPPIKPRP | -0.0789
RRIRQRPPRLPRPRPRPGKWPRP | 0.362
RRIRQRPPRLPRPRPRPNIWPRP | -0.0842
RRIRDRPPRLPRPRPRPDKPPRP | 0.00451
RRIRKRPPRLPRPRPRPNNDPRP | 0.0263
RRIRPRPPRLPRPRPRPENHPRP | -0.0822
RRIRMRPPRLPRPRPRPEFHPRP | 0.0755
RRIRDRPPRLPRPRPRPCMDPRP | 0.0285
RRIRHRPPRLPRPRPRPAHMPRP | -0.0835
RRIRQRPPRLPRPRPRPCFRPRP | -0.155

Sequence | shrunken log2 fold change
RRIRARPPRLPRPRPRPGCRPRP | 0.609
RRIRDRPPRLPRPRPRPGSAPRP | 0.238
RRIRCRPPRLPRPRPRPDLEPRP | -0.26
RRIRERPPRLPRPRPRPESTPRP | 0.176
RRIRLRPPRLPRPRPRPTKHPRP | -0.14
RRIRFRPPRLPRPRPRPVMLPRP | -0.412
RRIRSRPPRLPRPRPRPSMCPRP | -0.146
RRIRMRPPRLPRPRPRPAQAPRP | 0.107
RRIRSRPPRLPRPRPRPLFGPRP | 0.157
RRIRWRPPRLPRPRPRPSGRPRP | 0.201
RRIRVRPPRLPRPRPRPSRFPRP | -0.0691
RRIRYRPPRLPRPRPRPSGGPRP | -0.519
RRIRNRPPRLPRPRPRPFNGPRP | -0.0926
RRIRHRPPRLPRPRPRPKFQPRP | -0.0213
RRIRTRPPRLPRPRPRPACMPRP | 0.0444
RRIRDRPPRLPRPRPRPQYFPRP | 0.0205
RRIRRRPPRLPRPRPRPVRHPRP | 0.247
RRIRQRPPRLPRPRPRPDWGPRP | -0.0197
RRIRMRPPRLPRPRPRPDENPRP | 2.68
RRIRNRPPRLPRPRPRPPAVPRP | 0.387

Sequence | shrunken log2 fold change
RRIRGRPPRLPRPRPRPVAPPRP | 1.18
RRIRFRPPRLPRPRPRPPAQPRP | 1.02
RRIRLRPPRLPRPRPRPDHMPRP | -0.0422
RRIRGRPPRLPRPRPRPLSKPRP | 0.425
RRIRMRPPRLPRPRPRPFMFPRP | 0.0892
RRIRVRPPRLPRPRPRPRRVPRP | 0.256
RRIRCRPPRLPRPRPRPNYCPRP | -0.3
RRIRKRPPRLPRPRPRPWGVPRP | 0.291
RRIRQRPPRLPRPRPRPVPLPRP | 0.0148
RRIRCRPPRLPRPRPRPPDCPRP | 0.177
RRIRVRPPRLPRPRPRPVIRPRP | -0.375
RRIRKRPPRLPRPRPRPMEEPRP | 0.371
RRIRQRPPRLPRPRPRPNPGPRP | -0.205
RRIRPRPPRLPRPRPRPIWLPRP | -0.132
RRIRVRPPRLPRPRPRPWPHPRP | -0.103
RRIRVRPPRLPRPRPRPVNDPRP | -0.201
RRIRERPPRLPRPRPRPVASPRP | -0.0471
RRIRWRPPRLPRPRPRPKIPPRP | 0.0948
RRIRQRPPRLPRPRPRPCKDPRP | -0.294
RRIRNRPPRLPRPRPRPCPWPRP | -0.141
